Source: the supplement of paper PMC10567573

B1: ALDH8A1 (parent)
chain: FTGSQPTAERITQLSAPHCKKLSL
B2: EPB41L3 (parent)
chain: GSKFRYSGRTQAQTRRASALIDRP

Variants of: B1
Test: protein stability index of a GFP-peptide fusion (GPS, HEK-293T) (PSI 1-6); higher = more stable
Conditions: c terminus: a fixed tail appended
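Also: lentivirally expressed fusions sorted by FACS into six bins by GFP to DsRed ratio, PSI derived from sequencing read proportions per bin multiplied by bin number.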

Protein stability index: each site, then its substitutions
Q5: C 2.45, L 1.65, M 2.19, S 3.01, A 2.08, E 2.57
A16: Q 2.1, C 1.55, D 2.52, R 2.43, V 2.27, S 2.17, I 2.25, G 2.5, T 2.63, H 2.13, M 1.91
Q13: W 2.67, Y 1.97, H 2.24, T 2.3, F 2.94, L 2.08
E9: S 1.86, L 3.09, M 1.37, A 1.96, I 2.23, T 1.87, F 2.74
G3: D 3.15, S 2.65, R 2.71, K 3.45, P 2.07, V 2.44, H 2.4, M 2.56, C 2.68, L 2.6
K20: T 2.19, P 2.3, S 2.26, V 1.93, W 1.61
L24: A 2.6, V 2.38, Q 2.9, H 2.52, F 1.97, I 2.04
A8: P 2.3, R 2.6, I 2.46, M 2.58
S4: L 2.1, D 3.06, P 2.67, I 2.36, C 2.31, F 2.03, H 2.59
C19: G 2.58, P 2.06, R 2.45, T 2.45, Y 1.68, Q 2.79
T12: L 1.79, A 2.21, M 2, Y 2.69, S 2.79, C 1.83, E 3.25
K21: M 2.45, L 1.84, H 2.1, Q 2.23, I 1.71, V 2.22
T7: D 2.98, K 2.32, C 2, L 2.27, P 2.67, S 2.08, F 2.99, I 2.39, A 3.05, R 2.55
S23: C 1.78, P 2.33, M 2.27, Y 2.66
S15: Y 3.69, D 2.18, K 1.84, A 2.39, H 1.85
I11: R 2.81, V 2.44, A 2.48, G 2.09, D 3.39, Q 2.49
F1: C 3.48, P 4.14, R 3.78, W 3.35, T 4.27, Y 2.47, L 3.65, D 4.38, M 3.62, H 4.18, A 4.03
R10: Q 2.17, D 2.31, S 2.42, F 1.9, Y 1.65, V 1.63
P17: G 2.25, M 2.04, T 2.24, Y 2.05, K 2.12, H 2.34, N 2.55, A 2.49
P6: K 2.7, N 2.71, V 2.07, D 2.43, H 2.25, C 2.42, E 2.79, Y 1.92
H18: S 2.74, Q 2.29, T 2.31, N 2.11, D 3.24
L22: F 1.92, K 2.68, Y 2.68, P 2.26
T2: N 3.41, A 2.38, F 2.89, E 3.86, S 3.11, D 3.95
L14: S 2.76, I 2.53, E 3.18, W 2.2, K 2.73, Y 2.39, T 2.87, V 1.9, F 1.79, C 1.79

Variants of: B2
Test: as above
Conditions: c terminus: a fixed tail appended

Protein stability index of substitutions, site by site:
G1: N 3.34
D22: L 2.99
R5: Q 3.26
